Test results: US20180155451A1 (published 2018)
Where a chain is given by its changes, count along the chain named. Numbers in names are those of the source. Blank lines part the entries; values can stand above or below the binder they belong to.

How the values were obtained:
[1] = target: T1, FcγRIIb (human, UniProt P31994 43-217); assay: SPR (Biacore), KD
T1 construct: extracellular domain; for crystallography expressed with Kifunesine and trimmed with Endo F1; also called FcgRIIb; FcgR2b; not shown: His tag attached to the C terminus
T1 sequence (looked up): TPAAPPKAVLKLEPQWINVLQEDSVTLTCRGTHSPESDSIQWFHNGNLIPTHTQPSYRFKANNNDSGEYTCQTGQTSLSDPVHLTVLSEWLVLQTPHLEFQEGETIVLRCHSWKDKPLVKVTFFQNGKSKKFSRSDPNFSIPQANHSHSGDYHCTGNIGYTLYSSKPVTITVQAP

[2] = target: T2, FcgRIa (human, UniProt P12314 16-292); assay: SPR (Biacore 4000), antibody captured on chip, FcgR as analyte; kd below the limit 5e-5 /s
T2 construct: extracellular domain; also called FcγRIa; FcγRI; not shown: C-terminal His tag
T2 sequence (P12314 16-292): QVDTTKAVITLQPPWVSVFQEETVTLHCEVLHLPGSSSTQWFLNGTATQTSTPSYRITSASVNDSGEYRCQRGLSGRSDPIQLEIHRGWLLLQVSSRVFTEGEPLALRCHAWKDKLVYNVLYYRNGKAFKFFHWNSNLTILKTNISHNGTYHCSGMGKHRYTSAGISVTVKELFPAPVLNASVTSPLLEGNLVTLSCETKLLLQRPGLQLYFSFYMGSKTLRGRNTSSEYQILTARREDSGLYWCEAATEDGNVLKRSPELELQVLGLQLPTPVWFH
Protocol: (§1) The variants described above were assessed for their binding to FcγR according to the method described in Reference Example 8.
(§2) Analysis of interaction between obj ective antibody and the FcγR was carried out using Biacore T100 (GE Healthcare), Biacore T200, Biacore A100, and Biacore 4000. HBS-EP+ (GE Healthcare) was used as the running buffer, and the measurement temperature was set to 25° C. Chips produced by immobilizing the antigen peptide by the amine coupling method to a Series S sensor Chip CM5 (GE Healthcare), chips produced by allowing preliminarily biotinylated antigen peptides to interact with and immobilize onto a Series S Sensor Chip SA (certified) (GE Healthcare), chips produced by immobilizing Protein L (ACTIGEN, BioVision) to Series S Sencor Chip CM5 (GE Healthcare), or chips produced by immobilizing Protein A/G (Thermo Scientific) to Series S Sencor Chip CM5 (GE Healthcare) were used. Antibodies of interest were captured onto these chips, and allowed to interact to each FcγR diluted with running buffer. To regenerate and repeatedly use the chip, the antibodies captured onto the chip were washed off by reacting 10 mM glycine-HCl, pH 1.5.

[3] = target: T3, FcgRIIaH (human, UniProt P12318 34-217); assay: SPR (Biacore), antibody captured on chip, FcgR as analyte
T3 construct: extracellular domain; H131 allotype; also called FcγRIIa H; FcgRIIa type H; not shown: C-terminal His tag
T3 sequence (looked up): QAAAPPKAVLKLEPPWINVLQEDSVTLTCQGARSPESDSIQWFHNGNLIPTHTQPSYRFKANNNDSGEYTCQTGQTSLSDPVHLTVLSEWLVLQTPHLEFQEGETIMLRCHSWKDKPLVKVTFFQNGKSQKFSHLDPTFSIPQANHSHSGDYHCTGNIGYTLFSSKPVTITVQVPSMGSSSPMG
Protocol: as §1, §2

[4] = target: T4, FcgRIIIaV (human, UniProt P08637 17-208); assay: as above
T4 construct: extracellular domain; V158 allotype; also called FcγRIIIa V; not shown: C-terminal His tag
T4 sequence (P08637 17-208 F176V limits assumed): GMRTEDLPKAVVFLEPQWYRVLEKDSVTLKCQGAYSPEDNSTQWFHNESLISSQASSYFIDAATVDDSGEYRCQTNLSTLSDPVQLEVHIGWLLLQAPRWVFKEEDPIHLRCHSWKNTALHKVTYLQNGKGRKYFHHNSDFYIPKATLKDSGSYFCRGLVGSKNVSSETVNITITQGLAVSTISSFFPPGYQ
Protocol: as §1, §2

[5] = target: T5, FcgRIIb (human, UniProt P31994 43-217); assay: as above
T5 construct: extracellular domain; also called FcγRIIb; CD32B; not shown: C-terminal His tag
T5 sequence (looked up): T1 sequence (looked up)
Protocol: as §1, §2

[6] = target: T6, FcgRIIaR (human, UniProt P12318 34-217); assay: as above
T6 construct: extracellular domain; R131 allotype; also called FcγRIIa R; FcgRIIa type R; not shown: C-terminal His tag
T6 sequence (looked up): T3 sequence (looked up) with H134R
Protocol: as §1, §2

[7] = target: T7, FcgRIIIaF (human, UniProt P08637 17-208); assay: as above
T7 construct: extracellular domain; F158 allotype; also called FcγRIIIa F; not shown: C-terminal His tag
T7 sequence (P08637 17-208): as the sequence (P08637 17-208 F176V limits assumed) above, with V160F counted along it
Protocol: as §1, §2

[8] = target: T3, FcgRIIaH; assay: SPR (Biacore); KD of H240-Kn120/H240-Hl068/L73-k0 divided by KD of the sample
Protocol: as §1, §2

[9] = target: T4, FcgRIIIaV; assay: as above
Protocol: as §1, §2

[10] = target: T5, FcgRIIb; assay: as above
Protocol: as §1, §2

[11] = target: T6, FcgRIIaR; assay: as above
Protocol: as §1, §2

[12] = target: T7, FcgRIIIaF; assay: as above
Protocol: as §1, §2

[13] = target: T1, FcγRIIb; assay: SPR (Biacore), relative binding; compared with GpH7-A48/GpH7-B3/GpL16-k0
Protocol: (§3) Analysis of interaction between objective antibody and the FcγR was carried out using Biacore T100 (GE Healthcare). HBS-EP+ (GE Healthcare) was used as the running buffer, and the measurement temperature was set to 25° C. Chips produced by immobilizing the antigen peptide by the amine coupling method to a Series S Sencor Chip CM5 (GE Healthcare), or alternatively, chips produced by allowing preliminarily biotinylated antigen peptides to interact with and immobilize onto a Series S Sensor Chip SA (certified) (GE Healthcare) were used. Antibodies of interest were captured onto an antigen peptide-immobilized chip, and allowed to interact to each FcγR diluted with running buffer. To regenerate and repeatedly use the chip, the antibodies captured on the chip were washed off by reacting 10 mM glycine-HCl, pH 1.5.

[14] = target: T8, FcγRIIIa (human, UniProt P08637 17-208); assay: SPR (Biacore); KD of GpH7-TA7/GpH7-B78/GpL16-k0 for FcγRIIIa divided by the KD of this antibody (the reference itself)
T8 construct: extracellular domain; The protein is soluble, His-tagged, and was expressed in FreeStyle293 cells; also called FcgRIIIa; CD16A; not shown: His tag attached to the C terminus
T8 sequence (P08637 17-208): as the sequence (P08637 17-208 F176V limits assumed) above, with V160F counted along it
Protocol: (§4) Then, K334G was also assessed in the same manner. GpH7-TA40 (SEQ ID NO: 47) resulting from the introduction of K334G into GpH7-TA7 was constructed, and expressed and prepared in combination with GpH7-B78 according to the method described in Reference Example 1. Furthermore, GpH7-TA50 (SEQ ID NO: 48) resulting from the introduction of K334G into GpH7-B78 was constructed, and expressed and prepared in combination with GpH7-TA7 according to the method described in Reference Example 1. To assess the effect of combinations with K334G, the prepared antibodies were compared for the FcγRIIIa binding according to the method described in Reference Example 2 (Table 18).
as §3, with “To regenerate and repeatedly use the chip, the antibodies captured on the chip were washed off by reacting 10 mM glycine-HCl, pH 1.5.” left out

[15] = target: T8, FcγRIIIa; assay: SPR (Biacore T100); antibody captured on an antigen peptide chip, FcγRIIIa as analyte; 1:1 Langmuir kinetic fit
Protocol: as §4, §3

fold increase of binding activity over native IgG1 [1]: ~50 fold
B1: H240-Kn120/H240-Hl068/L73-k0 (antibody, human IgG1, kappa)
heavy 1: QDQLVQSGAEVKKPGASVKVSCKASGFNIKDTYIQWVRQAPGQGLEWMGRIDPLRKQTKYREKFEGRVTITADTSTNTAYMELSSLRSEDTAVYYCVRSGREFDYWGQGTLVTVSSASTKGPSVFPLAPSSKSTSGGTAALGCLVKDYFPEPVTVSWNSGALTSGVHTFPAVLQSSGLYSLSSVVTVPSSSLGTQTYICNVNHKPSNTKVDKKVEPKSCDKTHTCPPCPAPEYYWGPMVFLFPPKPKDTLMISRTPEVTCVVVDVSDEDPEVKFNWYVDGVEVHNAKTKPREEQYNATYRVVSVLTVLHQDWLNGKEYKCKVSNKDLPAPIEKTISKAKGQPREPQVCTLPPSRDELTKNQVSLWCLVKGFYPSDIAVEWESNGQPENNYKTTPPVLDSDGSFFLYSKLTVDKSRWQQGNVFSCSVMHEALHNHYTQKSLSLSP
heavy 2: QDQLVQSGAEVKKPGASVKVSCKASGFNIKDTYIQWVRQAPGQGLEWMGRIDPLRKQTKYREKFEGRVTITADTSTNTAYMELSSLRSEDTAVYYCVRSGREFDYWGQGTLVTVSSASTKGPSVFPLAPSSKSTSGGTAALGCLVKDYFPEPVTVSWNSGALTSGVHTFPAVLQSSGLYSLSSVVTVPSSSLGTQTYICNVNHKPSNTKVDKKVEPKSCDKTHTCPPCPAPELLGGPSVFLFPPKPKDTLMISRTPEVTCVVVDVSHEEPEVKFNWYVDGVEVHNAKTKPREEQYNSTYRVVSVLTVLHQDWLNGKEYKCKVSNDALPKPIEETISKAKGQPREPQVYTLPPSRCELTKNQVSLSCAVKGFYPSDIAVEWESNGQPENNYKTTPPVLDSDGSFFLVSKLTVDKSRWQQGNVFSCSVMHEALHNHYTQKSLSLSP
light: DIQMTQSPSSLSASVGDRVTITCRASQDIHKYIAWYQQKPGQAPRLLIQYTSTLQPGVPSRFSGSGSGTDYTFTISSLQPEDIATYYCLQYEQLRTFGGGTKVEIKRTVAAPSVFIFPPSDEQLKSGTASVVCLLNNFYPREAKVQWKVDNALQSGNSQESVTEQDSKDSTYSLSSTLTLSKADYEKHKVYACEVTHQGLSSPVTKSFNRGEC
notes: S239M added to H240-Kn067

Kd [2]: < 0.019 nM | Kd [3]: 42 nM | Kd [4]: 2.2 nM | Kd [5]: 290 nM | Kd [6]: 19 nM | Kd [7]: 12 nM | Relative KD [8]: 1 | Relative KD [9]: 0.2 | Relative KD [10]: 0.5 | Relative KD [11]: 1.1 | Relative KD [12]: 0.2
B2: H240-Kn192/H240-Hl204/L73-k0 (antibody, human IgG1, kappa)
heavy 1: B1 heavy 1 with Y234N, E293K
heavy 2: B1 heavy 2 with G235T, I331E
light: B1 light
notes: Heterodimerized anti-epiregulin antibody

KD ratio [14]: 1 | Kd [15]: 4.1 nM
B5: GpH7-TA7/GpH7-B78/GpL16-k0 (antibody, human IgG1, kappa)
heavy 1: QVQLVQSGAEVKKPGASVTVSCKASGYTFTDYEMHWIRQPPGEGLEWIGAIDPKTGDTAYSESFQDRVTLTADKSTSTAYMELSSLTSEDTAVYYCTRFYSYTYWGQGTLVTVSSASTKGPSVFPLAPSSKSTSGGTAALGCLVKDYFPEPVTVSWNSGALTSGVHTFPAVLQSSGLYSLSSVVTVPSSSLGTQTYICNVNHKPSNTKVDKKVEPKSCDKTHTCPPCPAPEYLWGPSVFLFPPKPKDTLMISRTPEVTCVVVDVSHEDPEVKFNWYVDGVEVHNAKTKPREEQYNATYRVVSVLTVLHQDWLNGKEYKCKVSNKALPAPIEKTISKAKGQPREPQVYTLPPSRKELTKNQVSLTCLVKGFYPSDIAVEWESNGQPENNYKTTPPVLDSDGSFFLYSKLTVDKSRWQQGNVFSCSVMHEALHNRYTQKSLSLSP
heavy 2: B5 heavy 1 with Y232L, W234G, S237D, A296S, A328L, I330E, K354D, R433H, K437E
light: DIVMTQSPLSLPVTPGEPASISCQASESLVHSNRNTYLHWYLQKPGQSPQLLIYKVSNRFSGVPDRFSGSGSGTDFTLKISRVEAEDVGVYYCSQNTHVPPTFGQGTKVEIERTVAAPSVFIFPPSDEQLKSGTASVVCLLNNFYPREAKVQWKVDNALQSGNSQESVTEQDSKDSTYSLSSTLTLSKADYEKHKVYACEVTHQGLSSPVTKSFNRGEC
notes: Heterodimerized anti-glypican-3 IgG1 antibody with two different H chains and a common L chain; also called TA7/B78

Continued, binder first:

B3: H240-Kn193/H240-Hl204/L73-k0 (antibody, human IgG1, kappa)
heavy 1: B1 heavy 1 with Y234N, E293R
heavy 2: B1 heavy 2 with G235T, I331E
light: B1 light
notes: as for B2
Kd [2]: < 0.024 nM | Kd [3]: 35 nM | Kd [4]: 1.8 nM | Kd [5]: 290 nM | Kd [6]: 16 nM | Kd [7]: 11 nM | Relative KD [8]: 1.2 | Relative KD [9]: 0.2 | Relative KD [10]: 0.5 | Relative KD [11]: 1.3 | Relative KD [12]: 0.2

B4: GpH7-A45/GpH7-B3/GpL16-k0 (antibody, human IgG1, kappa)
heavy 1: B5 heavy 1 with Y232L, W234G, G235A, A296S, P327R
heavy 2: not shown
light: B5 light
notes: G237A and P329R in the same H chain
binding result [13]: binds
